# In article PMC12042621 (Structure (London, England : 1993), 2025):
# Residue numbers refer to the chain shown, from its start. Numbers in names are those of the source.
# B1: LaG43 (VHH)
# VHH: DVQLVESGGGLVQPGGSLRLSCEASGGAFSTVAMGWFRQAPGKEREFVGAITWTAGSTYYADSAKGRFTISRDNAKNTVHLQMNSLKPEDTAVYYCAQRVRGFFGPLRTTPSWYEYWGQGTQVTVSG
# B2: LaG41 (VHH)
# VHH: DVQLVESGGGLVQAGGSLRLSCAASGPTGAMAWFRQAPGKEREFVGGISGSETDTYYVDSVKGRFTVDRDNVKNTVYLQMNSLKPEDTAVYYCAARRRITLFTSRTDYDFWGRGTQVTVGL
# B3: LaG21_(L69F) (VHH)
# VHH: B2 VHH with D1Q, K40M, V58A, S60F, Y77D, I99V, T106A, R113Q, G120S, L121G
# B4: LaG16 (VHH)
# VHH: QVQLVESGGRLVQAGDSLRLSCAASGRTFSTSAMAWFRQAPGREREFVAAITWTVGNTILGDSVKGRFTISRDRAKNTVDLQMDNLEPEDTAVYYCSARSRGYVLSVLRSVDSYDYWGQGTQVTVSG
# B5: LaG21 (VHH)
# VHH: QVQLVESGGGLVQAGGSLRLSCAASGPTGAMAWFRQAPGMEREFVGGISGSETDTYYADFVKGRLTVDRDNVKNTVDLQMNSLKPEDTAVYYCAARRRVTLFTSRADYDFWGQGTQVTVSG
# B6: LaG24_(Q68K) (VHH)
# VHH: DVQLVESGGGLVQPGGSLRLSCAASGEIASIIAIGWYRQAPGKQRESVALITRSGMITYGDSAKGRFTISRDDAKNTVYLHMDDLVPEDTAVYYCNAKKVSFGDYWGQGTQVTVSG
# B7: LaG24_(H85Q) (VHH)
# VHH: B6 VHH with K64Q, H81Q
# B8: LaG19_(S102R) (VHH)
# VHH: QVQLVESGGGLVQAGGSLRLSCAASGPTGAMAWFRQAPGKEREFVGGISRSGTDTYYVDSVKGRFTIDRDNAKNTVYLQMNSLKPEDTAVYYCAARRRQILFTSRTDYEFWGQGTQVTVSG
# B9: S1–8 (VHH)
# VHH: QVQLVESGGGLVQAGGSLRLSCAASGRVLSSYVMGWFRQAPGKEREFVAAIRWNGGSTFYADSVKGRLTISRDNAKNTVYLQMNSLKPEDTAAYYCAASPRTMYDATYYYSRTSYDYWGQGTQVTVS
# Target: Green Fluorescent Protein (Aequorea victoria, laboratory variant …)
# Experiment: SPR
Binder,Kd,fold increase in affinity over wildtype LaG24
B1,11000 pM,
B2,900 pM,
B3,700 pM,
B4,700 pM,
B5,7000 pM,
B6,,~10 fold
B7,,> 10 fold
B8,600 pM,

# Target: SARS-CoV-2 spike S1 (SARS-CoV-2, wild type (Wuhan-Hu-1), UniProt P0DTC2)
# Experiment: SPR
row,Binder,Kd
1,B9,3800 pM
